Source: patent US20260174847A1, “METHODS OF TREATING DIGESTIVE DISEASES AND COMPOSITIONS THEREOF” (PTM Therapeutics, Inc., priority 2023, published 2026)
Substitutions are numbered along the chain they refer to.

B1: Clone 4770: Humanized IgG1 antibody, heavy chain variable region HvCh3 (SEQ ID NO: 3), light chain LiCh2 (SEQ ID NO: 6) (antibody, V domains shown)
VH: EVQLVESGGGLVQPGGSLRLSCAASGFTFSTNAMSWVRQAPGKGLEWVARLRPKSDNYATYYADSVKGRFTISRDDSKNTLYLQMNSLRAEDTAVYYCVTGTGFWGQGTTLTVSS
VL: DIVMTQSPDSLAVSLGERVTMNCKSSQSLLNSGNQKNYLTWYQQKPGQPPKLLIYWTSTRESGVPDRFSGSGSGTDFTLTISSVQAEDVAVYYCQNDYTSPYTFGQGTKLEIK
B2: Clone 4765: Humanized IgG1 antibody, heavy chain variable region HvCh2 (SEQ ID NO: 2), light chain LiCh1 (SEQ ID NO: 5) (antibody, V domains shown)
VH: B1 VH with D76N
VL: B1 VL with V19A, M21I, V84L
B3: Clone 4771: Humanized IgG1 antibody, heavy chain variable region HvCh3 (SEQ ID NO: 3), light chain LiCh3 (SEQ ID NO: 7) (antibody, V domains shown)
VH: B1 VH
VL: B1 VL with V19A, M21I, I54F, V84L
B4: Clone 4768: Humanized IgG1 antibody, heavy chain variable region HvCh2 (SEQ ID NO: 2), light chain LiCh4 (SEQ ID NO: 8) (antibody, V domains shown)
VH: B1 VH with D76N
VL: B1 VL with I54F
B5: Clone 4772: Humanized IgG1 antibody, heavy chain variable region HvCh3 (SEQ ID NO: 3), light chain LiCh4 (SEQ ID NO: 8) (antibody, V domains shown)
VH: B1 VH
VL: B1 VL with I54F
B6: Clone 4766: Humanized IgG1 antibody, heavy chain variable region HvCh2 (SEQ ID NO: 2), light chain LiCh2 (SEQ ID NO: 6) (antibody, V domains shown)
VH: B1 VH with D76N
VL: B1 VL
B7: Clone 4769: Humanized IgG1 antibody, heavy chain variable region HvCh3 (SEQ ID NO: 3), light chain LiCh1 (SEQ ID NO: 5) (antibody, V domains shown)
VH: B1 VH
VL: B1 VL with V19A, M21I, V84L

Experiment: SPR (Biocore T100) binding affinity to sLeC
Conditions: Example 3, Table 7, mean
Method: (§1) An in vitro evaluation of the binding affinity to sLeA and sLeC of the humanized antibodies from Example 1 were performed using a Biocore T100 SPR biosensor using a CM7 sensor chip with PBS-p (0.005% Tween-20) running buffer at 25 degrees Celsius. The antibodies were couples to ˜30,000 RU at 50 ug/ml in 10 mM NaAcetate pH 5.0 over an NHS/EDC activated surface. A reference surface was activated and blocked to serve as a control. Carbohydrate samples (sLeA, sLeC and sialyl Lewis X (all from Dextra Labs)) were dissolved in PBS-p running buffer up to a stock concentration of 10 mM. Each was then prepared in a 2-fold dilution series up to 300 μM and each concentration series was tested over the antibody surfaces. Response data were processed by subtracting the responses from the reference surfaces as well as a buffer injection. Binding constants were determined at 25 degrees Celsius.
(§2) Seven of the humanized antibody clones from Example 1 were tested for binding affinity to sLeA, sLeC and […]. Methods used were similar to those described in Example 2 above, except with sLeX only at one concentration of 300 μM.

Kd	Molecule
93.2 µM	B1
306 µM	B2
85.4 µM	B3
460 µM	B4
77.1 µM	B5
538 µM	B6
104 µM	B7

Experiment: SPR (Biocore T100) binding affinity to sLeA
Conditions: Example 3, Table 7, mean
Method: as §1, §2

Kd	Molecule
69.1 µM	B1
732 µM	B2
59.2 µM	B3
552 µM	B4
48.3 µM	B5
621 µM	B6
81.3 µM	B7
